Test results from patent US6429014B1, “Monoterpene synthases from grand fir (Abies grandis)” (Washington State University Research Foundation, priority 1997, dated 2002).

B1: ag9: recombinant terpinolene synthase from Grand fir encoded by clone ag9 (SEQ ID NO:77; protein SEQ ID NO:78) (protein, listed as Abies grandis)
chain: MALVSILPLSSKSVLHKSWIVSTYEHKAISRTIPNLGLRGRGKSVTHSLRMSLSTAVSDDHGVQRRIVEFHSNLWDDDFIQSLSTPYGAPSYRERADRLIVEVKGIFTSISAEDGELITPLNDLIQRLLMVDNVERLGIDRHFKNEIKAALDYVYSYWNEKGIGSGSDSGVADLNSTALGFRILRLHGYSVSSDVLEHFKEEKEKGQFVCSAIQTEEEIKSVLNLFRASLIAFPGEKVMEEAEIFSKIYLKEALQNIAVSSLSREIEYVLEDGWQTNMPRLETRNYIDVLGENDRDETLYMNMEKLLEIAKLEFNIFHSLQQRELKDLSRWWKDSGFSHLTFSRHRHVEFYALASCIETDRKHSGFRLGFAKMCHLITVLDDIYDTFGTMEELELFTAAFKRWDPSATDLLPEYMKGLYMVVYETVNEIAREADKSQGRETLNDARRAWEAYLDSYMKEAEWISSGYLPTFEEYMETSKVSFGYRIFALQPILTMDVPLTHHILQEIDFPLRFNDLICSILRLKNDTRCYKADRARGEEASCISCYMKENPGSTEEDAINHINAMVNNLIKEVNWELLRQDGTAHIACKKHAFDILKGSLHGYKYRDGFSVANKETKNWVRRTVLESVPL
B2: ag6: recombinant (−)-camphene synthase from Grand fir encoded by clone ag6 (SEQ ID NO:64; protein SEQ ID NO:65) (protein, listed as Abies grandis)
chain: MALLSITPLVSRSCLSSSHEIKALRRTIPTLGICRPGKSVAHSINMCLTSVASTDSVQRRVGNYHSNLWDDDFIQSLISTPYGAPDYRERADRLIGEVKDIMFNFKSLEDGGNDLLQRLLLVDDVERLGIDRHFKKEIKTALDYVNSYWNEKGIGCGRESVVTDLNSTALGLRTLRLHGYTVSSDVLNVFKDKNGQFSSTANIQIEGEIRGVLNLFRASLVAFPGEKVMDEAETFSTKYLREALQKIPASSILSLEIRDVLEYGWHTNLPRLEARNYMDVFGQHTKNKNAAEKLLELAKLEFNIFHSLQERELKHVSRWWKDSGSPEMTFCRHRHVEYYALASCIAFEPQHSGFRLGFTKMSHLITVLDDMYDVFGTVDELELFTATIKRWDPSAMECLPEYMKGVYMMVYHTVNEMARVAEKAQGRDTLNYARQAWEACFDSYMQEAKWIATGYLPTFEEYLENGKVSSAHRPCALQPILTLDIPFPDHILKEVDFPSKLNDLICIILRLRGDTRCYKADRARGEEASSISCYMKDNPGLTEEDALNHINFMIRDAIRELNWELLKPDNSVPITSKKHAFDISRVWHHGYRYRDGYSFANVETKSLVMRTVIEPVPL

Assay: Terpene synthase assay and GC-MS / chiral GC product identification of recombinant enzymes expressed from pSBET in E. coli BL21(DE3) (Example 11)
Assay type: biochemical
Description: For functional expression, bacterial strains E. coli BL21(DE3)/pSAG2(M), E. coli BL21(DE3)/pSAG2(R), E. coli BL21(DE3)/pSAG3(R), E. coli BL21(DE3)/pSAG6(M), E. coli BL21(DE3/pSAG6(R), E. coli BL21(DE3)/pSAG8(M), E. coli BL21(DE3)/pSAG9(M), E. coli BL21(DE3)/pSAG11(M) and E. coli BL21(DE3)/SAG11(R) were grown to A600=0.5 at 37° C. in 5 ml of Luria-Bertani medium (Sambrook, J., Fritsch, E. F., and Maniatis, T. (1989) Molecular Cloning: A Laboratory Manual, 2nd Ed., pp. 7.20-7.43, Cold Spring Harbor, N.Y.) supplemented with 30 μg kanamycin/ml. Cultures were then induced by addition of 1 mM isopropyl-1-thio-β-D-galactopyranoside and grown for another 12 h at 20° C. Cells were harvested by centrifugation and disrupted by sonication followed by centrifugation, and the resulting soluble enzyme preparations were assayed for monoterpene, sesquiterpene and diterpene synthase activity using the appropriate radiolabeled substrate as described previously (Bohlmann, J., Steele, C. L., and Croteau, R. (1997) J. Biol. Chem. 272, 21784-21792). This assay involves the isolation and separation of terpene olefins and oxygenated terpenes by column chromatography on silica, followed by scintillation counting to determine conversion rate. GC-MS analysis is employed for product identification, by comparison of retention times and mass spectra to those of authentic standards (Bohlmann, J., Steele, C. L., and Croteau, R. (1997) J. Biol Chem. 272, 21784-21792); assignment of absolute configuration is based upon chiral column capillary GC and matching of retention time to that of the corresponding enantiomer (Lewinsohn, E., Savage, T. J., Gijzen, M., and Croteau, R. (1993) Phytochem. Anal. 4, 220-225). To insure production of sufficient material for identification, the standard assay (Bohlmann, J., Steele, C. L., and Croteau, R. (1997) J. Biol. Chem. 272, 21784-21792) was scaled up by a factor of 20.
Initially, the four pSBET plasmids pSAG6(M), pSAG8(M), pSAG9(M) and pSAG11(M), containing the full-length cDNA inserts of ag6 (SEQ ID NO:64), ag8 (SEQ ID NO:66), ag9 (SEQ ID NO:77) and ag11 (SEQ ID NO:68), respectively, were expressed in E. coli BL21(DE3). Extracts of the induced, transformed bacterial cells were assayed for monoterpene, sesquiterpene and diterpene synthase activity using the corresponding labeled C10, C15 and C20 prenyl diphosphate substrates (Bohlmann, J., Steele, C. L., and Croteau, R. (1997) J. Biol. Chem. 272, 21784-21792). […] Since it is known that the relatively large amino-terminal transit peptide of plant terpene synthases can impair expression of the functional preprotein in E. coli and promote the formation of intractable inclusion bodies (Williams, D. C., McGarvey, D. J., Katahira, E. J., and Croteau, R. (1998) Biochemisiry 37, 12213-12220), the“pseudomature” forms of ag6 (SEQ ID NO:64) and ag11 (SEQ ID NO:68) were prepared by truncation of the cDNAs to insert a starting methionine immediately upstream of their tandem arginine elements (R59R 60 for ag6 (SEQ ID NO:64), R^71R^72 for ag11 (SEQ ID NO:68)) for expression in E. coli BL21(DE3)/pSAG6(R) and E. coli BL21(DE3)/pSAG11(R). Similar truncations of previously characterized ag2.2 (SEQ ID NO:1) (myrcene synthase, R^64R^65) and ag3.18 (SEQ ID NO:3) ((−)-pinene synthase, (SEQ ID NO:5) R^64R^65) (Bohlmann, J., Steele, C. L., and Croteau, R. (1997) J. Biol. Chem. 272, 21784-21792) were prepared for expression from pSBET as controls for the possible alteration of product yield and distribution resulting from truncation.
Monoterpenes generated at preparative scale from geranyl diphosphate by the recombinant enzymes encoded by ag6 (SEQ ID NO:64), ag8 (SEQ ID NO:66), ag9 (SEQ ID NO:77) and ag11 (SEQ ID NO:68) were analyzed by GC-MS and chiral phase (β-cyclodextrin) capillary GC, and identified by comparison of retention times and mass spectra to authentic standards (FIGS. 6-9). […] The enzyme encoded by ag6 (SEQ ID NO:65) is therefore designated as (−)-1S,4R-camphene synthase. […]

[1] = from geranyl diphosphate, preparative scale

Row | Molecule | terpene synthase activity on expression from pSBET in E. coli BL21(DE3) (extracts of induced cells) | (−)-1S,5S-α-pinene share of monoterpene products [1] | (−)-1S,5S-β-pinene share of monoterpene products [1] | (−)-4S-limonene share of monoterpene products [1] | terpinolene share of monoterpene products [1] | (−)-1S,4R-camphene share of monoterpene products [1] | prenyl diphosphate substrate yielding terpene olefin products (C10, C15, C20 tested) (truncated forms pSAG6(R), pSAG11(R) in E. coli BL21(DE3))
1 | B1 | Enzymatic production of terpene olefin(s) was observed | 18% | 10% | 11% | 42% | – | –
2 | B2 | – | 32% | – | 7% | – | 54% | only geranyl diphosphate yielded high levels of terpene olefin products
